The values that follow come from patent publication US10000771B2, “Nuclear targeting sequences” (Yeda Research and Development Co. Ltd., priority 2007, dated 2018).

The test system of one test is CHO cells. Description: Microscopy of MEK1-GFP constructs (subcellular localization). The test is classed as cell-based. On the procedure: FIGS. 14A-14R are photomicrographs illustrating that the NTS motif regulates MEK1 shuttling into the nucleus. CHO cells overexpressing WT-GFP-MEK1 (WT), AAA-GFP-MEK1 (AAA-MEK) and EPE-GFP-MEK1 (EPE-MEK) were starved for 16 hr and treated with LMB (5 ng/ml, 1 hr; LMB), LMB (5 ng/ml, 1 hr)+TPA (250 nM, 15 min; LMB+TPA) or left un treated (NT). Subsequently the cells were fixed, stained with DAPI and visualized by a fluorescent microscope.
Immunofluorescence Microscopy. Cells were fixed (30 min in 3% paraformaldehyde in PBS or 10 min with ice-cold methanol), followed by 5-min permeabilization with 0.2% Triton X-100 in PBS (23° C.). The fixed cells were sequentially incubated with the appropriate Abs (45 min) followed by rhodamine-conjugated secondary Abs (45 min) and DAPI. Slides were visualized using a fluorescence microscope (Nikon, Japan) at 400× magnifications.
Other proteins that translocate into the nucleus upon stimulation are the MEKs [H. Jaaro, H. Rubinfeld, T. Hanoch, R. Seger, Proc. Natl. Acad. Sci. USA 94, 3742 (1997)]. […] This TPT sequence was also shown to be phosphorylated upon cellular stimulation [S. Matsuda, Y. Gotoh, E. Nishida, J Biol Chem 268, 3277 (Feb. 15, 1993)], and to be involved in protein-protein interaction that can determine subcellular localization [A. Nantel, K. Mohammad-Ali, J. Sherk, B. I. Posner, D. Y. Thomas, J Biol Chem 273, 10475 (Apr. 24, 1998). […]

The test system of the next test is SPS domain. In words: SPS phosphorylation detected by anti pSPS Ab Western blot. In kind it is cell-based. The following applies: COS7 cells, stimulated with VOOH, TPA, EGF or TGFβ, immunoprecipitation and Western blot. The method, then: (§1) FIGS. 4A-4I are autoradiographs characterizing SPS phosphorylation using an Ab to the phosphorylated SPS domain. FIG. 4A illustrates an elevation of pSPS detection upon stimulation. COS cells were transfected with WT-GFP-ERK2. Twenty-four hr after transfection, the cells were serum-starved for 16 hr and subsequently treated with the general stimulator VOOH (V, 100 μM Na3VO4 and 200 μM H2O2, 15 min), TPA (T, 250 nM, 15 min), EGF (E, 50 ng/ml for 15 min), or left untreated (NT). The GFP-ERK2 was immunoprecipitated with anti GFP Ab, extensively washed, and the IP was then subjected to Western blotting with anti phospho SPS-ERK (αphoSPS-ERK) and anti general ERK (αgen-ERK) Abs. FIG. 4B is a time course of SPS phosphorylation. COS7 cells overexpressing WT-GFP-ERK2 were serum starved followed by EGF stimulation for the indicated time points. The lysates were then subjected to Western blot analysis as in FIG. 4A. […] SPS phosphorylation was detected using the anti pSPS Abs, and this was compared to the amount of genral ERKs detected by αgERK. […] SPS-phosphorylation was detected using αpSPS and αgERK Abs. […] The phosphorylation (^32P-ERK2) of ERK and its mutants was detected by autoradiography. […]
FIG. 9B is an autoradiograph illustrating that stimulation elevates pSPS phosphorylation of 2GFP-SPS construct. […] The total amount of immunoprecipitated 2GFP-SPS was detected with αGFP Ab. […]
For orientation: A western blot detects proteins with antibodies after separation by electrophoresis.

The target in a further test is T1, Act-GST-ERK2 (Rattus norvegicus, UniProt P63086).
T1 construct: made in house; host or cells: bacteria co-expressing active MEK1
In words: In vitro kinase assay with active GST-ERK2. In kind it is biochemical. The following applies: immunoprecipitated protein as substrate, relative to GFP-ERK2. The method, then:
as §1, with “phosphorylation.” for “phosphorylation. COS7 cells overexpressing WT-GFP-ERK2 were serum starved followed by EGF stimulation for the indicated time points. The lysates were then subjected to Western blot analysis as in FIG. 4A.”
Some protein kinases downstream of MEKs that may be involved in the SPS phosphorylation are ERKs themselves (autophosphorylation) as their consensus phosphorylation site includes Ser/Thr followed by a Pro (Yoon and Seger, 2006, Growth Factors, 24, 21-44). […] As expected, ^32P incorporation to GFP-ERK2 was detected mainly when this protein was incubated with Act-ERK2. […]

T1 sequence (P63086 whole entry): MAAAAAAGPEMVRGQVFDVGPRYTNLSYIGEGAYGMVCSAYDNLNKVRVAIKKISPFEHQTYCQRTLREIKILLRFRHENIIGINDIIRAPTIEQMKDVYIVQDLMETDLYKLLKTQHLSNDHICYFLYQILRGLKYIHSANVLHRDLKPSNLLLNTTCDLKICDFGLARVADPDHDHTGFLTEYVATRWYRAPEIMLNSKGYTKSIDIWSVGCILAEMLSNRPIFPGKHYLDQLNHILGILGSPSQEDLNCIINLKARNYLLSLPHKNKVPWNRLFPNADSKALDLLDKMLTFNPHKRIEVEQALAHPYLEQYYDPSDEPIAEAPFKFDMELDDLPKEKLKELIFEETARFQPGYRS

B1: AAA-MEK1: GFP-MEK1 with residues 386-8 (TPT) replaced with Ala (protein, UniProt Q02750 1-393, looked up, variant T386A P387A T388A)
Dual specificity …: MPKKKPTPIQLNPAPDGSAVNGTSSAETNLEALQKKLEELELDEQQRKRLEAFLTQKQKVGELKDDDFEKISELGAGNGGVVFKVSHKPSGLVMARKLIHLEIKPAIRNQIIRELQVLHECNSPYIVGFYGAFYSDGEISICMEHMDGGSLDQVLKKAGRIPEQILGKVSIAVIKGLTYLREKHKIMHRDVKPSNILVNSRGEIKLCDFGVSGQLIDSMANSFVGTRSYMSPERLQGTHYSVQSDIWSMGLSLVEMAVGRYPIPPPDAKELELMFGCQVEGDAAETPPRPRTPGRPLSSYGMDSRPPMAIFELLDYIVNEPPPKLPSGVFSLEFQDFVNKCLIKNPAERADLKQLMVHAFIKRSDAEEVDFAGWLCSTIGLNQPSAAAHAAGV
modifications: GFP fusion
notes: GFP-MEK1 with residues 386-8 (TPT) replaced with Ala
On to B1, for which, in the test on CHO cells (LMB 5 ng/ml + TPA 250 nM, 15 min), the “nuclear accumulation after TPA stimulation” value was “localized in the cytoplasm”. For the same molecule, the “nuclear translocation after leptomycin B” value in the test on CHO cells (LMB 5 ng/ml, 1 hr) is given as “abrogated”.

B2: TEY-AAA: TEY mutated ERK2 that does not contain phosphates in this site (protein)
chain: MAAAAAAGPEMVRGQVFDVGPRYTNLSYIGEGAYGMVCSAYDNLNKVRVAIKKISPFEHQTYCQRTLREIKILLRFRHENIIGINDIIRAPTIEQMKDVYIVQDLMETDLYKLLKTQHLSNDHICYFLYQILRGLKYIHSANVLHRDLKPSNLLLNTTCDLKICDFGLARVADPDHDHTGFLAAAVATRWYRAPEIMLNSKGYTKSIDIWSVGCILAEMLSNRPIFPGKHYLDQLNHILGILGSPSQEDLNCIINLKARNYLLSLPHKNKVPWNRLFPNADSKALDLLDKMLTFNPHKRIEVEQALAHPYLEQYYDPSDEPIAEAPFKFDMELDDLPKEKLKELIFEETARFQPGYRS
modifications: left off: large carriers
As for B2, the “SPS phosphorylation upon stimulation (anti pSPS Ab recognition)” value in the test on SPS domain is “can still be recognize by the anti phosphoSPS Ab upon stimulation”. For the same molecule, the “reduction of phosphorylation (32P incorporation) by Act-ERK2” value with Act-GST-ERK2 is listed as about 25%.
